B1: anti-LILRB3 IgG #1 (antibody, V domains shown)
VH: EVQLVESGGGVVQPGRSLRLSCAASGFTFSSYGMHWVRQAPGKGLEWVAFIRYDGSNKYYADSVKGRFTISRDNSKNTLYLQMNSLRAEDTAVYYCAKAGFSGWYYYGMDVWGQGTMVTVSS
VL: DIVMTQSPSSLSASVGDRLTITCRASQSISTYLNWYQQKPGKAPKLLIYGASSLQSGVPSRFSGSGSGTDFTLTISSLQPEDFATYFCQQSYGLPLTFGGGTKVDIK
notes: Fully human IgG from scFv phage display; also called anti-LILRB3 #1; B3-1
B2: anti-LILRB3 IgG #26 (antibody, V domains shown)
VH: QVQMVESGGGLVKPGGSLRLSCAASGFTFSDHYLSWIRQAPGKGLEWVSYIDLSGSTVYYGDSVKGRFTISRDNARNSVYLQMNSLRAEDTAVYYCARGHYGLDVWGQGTMVTVSS
VL: NIQMTQSPSTLSASVGDRVTISCRASQSIGTWLAWYQQKPGKAPQLLIYKASSLHSGVPSRFSGSGSGTEFTLTISSLQPDDFATYYCQQYNLYSRTFGQGTKVEIK
notes: Fully human IgG; also called B3-26
B3: anti-LILRB3 antibody #32 (antibody, V domains shown)
VH: QVQLVQSGAEVKKPGSSVKVSCKASGGTFSSYAISWVRQAPGQGLEWMGGIIPIFGTANYAQKFQGRVTITADESTSTAYMELSSLRSEDTAVYYCARGWNWFDPWGQGTMVIVSS
VL: QSVLTQPPSVSADPGQKVTISCSGSSSNIGKNYVSWYQQLPGTAPKLLIYDDNRRLSGTPDRFSGSKSGTSATLGITGLQTGDEADYYCGAWDSSLSAYVFGTGTTVTVL
notes: Fully human IgG; Tied to clone 'B3-32' only by the clone number; also called B3-32
B4: HA-TRAF2 (exogenous, expressed in 293T cells) (other, human, UniProt Q12933 1-501, looked up)
chain: MAAASVTPPGSLELLQPGFSKTLLGTKLEAKYLCSACRNVLRRPFQAQCGHRYCSFCLASILSSGPQNCAACVHEGIYEEGISILESSSAFPDNAARREVESLPAVCPSDGCTWKGTLKEYESCHEGRCPLMLTECPACKGLVRLGEKERHLEHECPERSLSCRHCRAPCCGADVKAHHEVCPKFPLTCDGCGKKKIPREKFQDHVKTCGKCRVPCRFHAIGCLETVEGEKQQEHEVQWLREHLAMLLSSVLEAKPLLGDQSHAGSELLQRCESLEKKTATFENIVCVLNREVERVAMTAEACSRQHRLDQDKIEALSSKVQQLERSIGLKDLAMADLEQKVLEMEASTYDGVFIWKISDFARKRQEAVAGRIPAIFSPAFYTSRYGYKMCLRIYLNGDGTGRGTHLSLFFVVMKGPNDALLRWPFNQKVTLMLLDQNNREHVIDAFRPDVTSSSFQRPVNDMNIASGCPLFCPVSKMEAKNSYVRDDAIFIKAIVDLTGL
notes: also called exogenous HA-TRAF2; not shown: HA tag
B5: B3ICDhFc (LILRB3 intracellular domain fused to hFc at C-terminus) (Fc fusion)
chain: RRQRHSKHRTSDQRKTDFQRPAGAAETEPKDRGLLRRSSPAADVQEENLYAAVKDTQSEDRVELDSQSPHDEDPQAVTYAPVKHSSPRREMASPPSSLSGEFLDTKDRQVEEDRQMDTEAAASEASQDVTYAQLHSLTLRRKATEPPPSQEGEPPAEPSIYATLAIH
notes: domain: intracellular domain; also called B3ICD fused to human Fc; intracellular domain of LILRB3 alone; not shown: hFc (human Fc)

What was measured:
[1] = target: T1, recombinant LILRB3 (human LILRB3 extracellular domain protein) (human, UniProt O75022 24-443); test: Octet (BLI), antibody on protein A biosensors, recombinant LILRB3 in solution
T1 construct: extracellular domain; The panning method names the 'human LILRB3 extracellular domain protein'; The Octet method says only 'recombinant LILRB3', and the antigen of the ELISA is not described; also called LILRB3-ECD
Method: Affinity measurement and epitope binning: Affinity measurement and epitope binning were done as described previously (Gui et al., 2019). Briefly, antibody affinity was analyzed with the Octet RED96 instrument. […] ForteBio's data analysis software was used to extract association and dissociation rates assuming a 1:1 binding model. The Kd was calculated as the ratio koff/kₒₙ. […] In these epitope binning assays, primary antibodies (40 μg/ml) were loaded onto protein A biosensors, and remaining Fc-binding sites on the sensor were blocked with a human non-targeting IgG (200 μg/ml). […] Raw data were processed using ForteBio's Data Analysis Software 7.0. Antibody pairs were assessed for competitive binding.

[2] = target: T2, LILRB3 with amino acids 509-511 mutated from QEE to AAA (human, UniProt O75022 24-631); test: co-immunoprecipitation in 293T cells
T2 construct: also called B3 AAA mutant; not shown: hFc tag, per the general co-immunoprecipitation method
Excerpt: (§1) Western blotting and co-immunoprecipitation. Cells were lysed with RIPA buffer containing protease inhibitor (Roche Diagnostic). Samples were mixed with 2×SDS loading buffer and separated by SDS-PAGE. After transfer to nitrocellulose membranes, the protein was detected with specific primary antibodies and HRP-conjugated secondary antibodies. […] For immunoprecipitation, cells were lysed with Pierce IP Lysis Buffer (Thermo Fisher Scientific, 87787). […] Dynabeads protein A (Thermo Fisher Scientific, 10001D) was used in all co-immunoprecipitation.

[3] = target: T3, LILRB3 with deletion of amino acids 505-515 (human, UniProt O75022 24-631); test: co-immunoprecipitation in 293T cells
T3 construct: Deletion mutant; not shown: hFc tag, per the general co-immunoprecipitation method
Excerpt: as §1

[4] = target: FLAG-cFLIP (exogenous, expressed in 293T cells) (human, UniProt O15519 1-480); test: co-immunoprecipitation of FLAG-cFLIP with hFc-tagged LILRB3 constructs in 293T cells (FIG. 5e)
Sequence of FLAG-cFLIP (exogenous, expressed in 293T cells) (O15519 whole entry): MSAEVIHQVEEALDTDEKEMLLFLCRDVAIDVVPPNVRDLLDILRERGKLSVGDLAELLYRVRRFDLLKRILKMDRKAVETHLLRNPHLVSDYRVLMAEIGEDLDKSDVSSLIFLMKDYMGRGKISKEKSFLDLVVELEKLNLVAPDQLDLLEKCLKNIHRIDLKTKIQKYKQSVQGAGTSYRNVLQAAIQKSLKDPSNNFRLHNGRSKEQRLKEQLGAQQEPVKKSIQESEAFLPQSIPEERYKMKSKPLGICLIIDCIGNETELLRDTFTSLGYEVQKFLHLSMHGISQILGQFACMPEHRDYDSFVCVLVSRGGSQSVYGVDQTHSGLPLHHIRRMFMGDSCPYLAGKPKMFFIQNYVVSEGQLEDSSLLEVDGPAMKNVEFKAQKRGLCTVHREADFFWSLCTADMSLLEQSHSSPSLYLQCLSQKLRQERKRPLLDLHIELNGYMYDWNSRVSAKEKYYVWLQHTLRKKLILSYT
Excerpt: as §1

Row | Binder | binding result [1] | further results
1 | B1 | binds | 
2 | B2 | binds | 
3 | B3 | binds | 
4 | B4 |  | binding result [2]: no binding; binding result [3]: no binding
5 | B5 |  | binding result [4]: no binding

Source: patent US20240101667A1 (University of Texas, published 2024)
